Laboratory results reported in patent publication US20250326864A1 (PARADOX IMMUNOTHERAPEUTICS, published 2025).

Legend:
[1] = target: aggregated/amyloid Wil λ light chain (human); assay: cell-based or functional assay
[2] = target: T1, misfolded H3 λ light chain (human); assay: bio-layer interferometry
T1 construct: also called H3 (misfolded)
Experimental: (§1) FIGS. 6A-6F are bio-layer interferometry sensorgrams of binding interactions between clone 1 (muLX-97) to misfolded (FIGS. 6A, 6B, 6C) and native (FIGS. 6D, 6E, 6F) conformations of Wil (FIGS. 6A, 6D), H3 (FIGS. 6B, 6E), and FOR102 (FIGS. 6C, 6F) lambda light chain variants. Binding of muLX-97 with its misfolded Wil at a range of target concentrations was measured by changes in wavelength (nm) over 720 seconds (120 s association, 600 s dissociation). Association and dissociation curves were fit using Octet Systems Software to determine KD.
(§2) The binding affinity of muLX-97 to multiple λ light chain variants in misfolded and native conformations was then measured. In addition to Wil, two light chain variants sequenced from cardiac amyloid deposits in light chain amyloidosis patients were selected. See Oberti L et al. Concurrent structural and biophysical traits link with immunoglobulin light chains amyloid propensity. Sci Rep. 2017 Dec. 1; 7(1):16809 and Baur J et al. Identification of AL proteins from 10λ-AL amyloidosis patients by mass spectrometry extracted from abdominal fat and heart tissue. Amyloid. 2023 March; 30(1) 27-37. […] In native conformations of all variants, only weak binding (limited BLI signal, at very high concentration of 1000 nM) was observed. This limited association may be due to the presence of small amounts of misfolded Wil contaminating the ‘native’ sample.

[3] = target: T2, misfolded FOR102 λ light chain (human); assay: bio-layer interferometry
T2 construct: also called FOR102 (misfolded)
Experimental: as §1, §2

[4] = target: T3, misfolded/unfolded Wil λ light chain (human); assay: bio-layer interferometry
T3 construct: mature; Soluble misfolded form made from native Wil; Biotinylated in the capture ELISA; also called misfolded Wil; Wil (misfolded)
Experimental: as §1, §2

[5] = target: T4, islet amyloid polypeptide (IAPP) amyloid in pancreatic tissue (human, UniProt P10997 34-70); assay: immunohistochemistry on patient tissue
T4 construct: Pathological control tissue in immunohistochemistry; also called IAPP amyloid pancreatic tissue
T4 chain (looked up): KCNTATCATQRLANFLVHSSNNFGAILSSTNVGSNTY

[6] = target: transthyretin (ATTR) amyloid in cardiac tissue (human, UniProt P02766 21-147); assay: immunohistochemistry on patient tissue
[7] = target: T3, misfolded/unfolded Wil λ light chain; assay: microscale thermophoresis, labeled antibody
Experimental: (§3) FIGS. 7A and 7B are line graphs illustrating the results of binding of misfolded (FIG. 7A) or amyloid (FIG. 7B) Wil to muLX-97 measured by MST (microscale thermophoresis).
(§4) Next, the binding affinity of muLX-97 to amyloid forms of λ light chains was determined. A true affinity to aggregates could not be measured using previously described methods where either the antibody or target is immobilized, so microscale thermophoresis (MST) was used. In this method a small spot in a capillary containing fluorescently labeled antibody in the presence or absence of target is irradiated with an infrared laser. The local heating causes migration of protein out of the heated spot and the rate of migration change (due to the antibody binding to a ligand) can be used to measure the affinity. Using the NanoTemper Monolith, binding of muLX-97 to misfolded and amyloid forms of Wil was quantified, with results shown in FIG. 7.

[8] = target: T3, misfolded/unfolded Wil λ light chain; assay: microscale thermophoresis, labeled antibody; remark: listed apart in the source
Experimental: as §3, §4

[9] = target: T5, aggregated/amyloid Wil λ light chain (human); assay: microscale thermophoresis, labeled antibody
T5 construct: mature; Aggregate of many chains; Conjugated to pHrodo in the phagocytosis assay; also called Wil amyloid; amyloid/aggregated Wil
Experimental: as §3, §4

[10] = target: T3, misfolded/unfolded Wil λ light chain; assay: capture ELISA, antibody captured by anti-mouse Fc, biotinylated Wil in solution
Excerpt: All the candidate mAbs detected both misfolded/unfolded and amyloid/aggregated Wil. […] It was suspected that the Western blotting and indirect ELISA methods, which immobilizes the ‘native’ Wil protein to a surface, can lead to false-positive binding to the native protein by inducing some degree of misfolding, which would not be detected by the clones that bound weakly (clones 3-5). As such, a capture format ELISA was used to interrogate the binding behavior of clones 1 and 2. In this format, a goat anti-mouse Fc capture antibody was coated into the ELISA wells, and clones 1 or 2 are captured by the antibody with their Fabs aligned to the appropriate orientation. Then, native, or misfolded forms of biotinylated Wil is added to these wells and binding is measured by streptavidin. […] Based on the above data, clone 1 was selected as the lead candidate for subsequent characterization (henceforth referred to as muLX-97).

B1: muLX-97 (clone 1) (antibody, V domains shown)
VH: DVKLVESGGGLVKLGGSLKLSCAASGFTFSSYYMSWVRQTPEKRLELVAAINSNGGNTYYPDTVKGRFTISRDNAKNTLYLQMSSLKSEDTALYYCARLPFDYWGQGTTLTVSS
VL: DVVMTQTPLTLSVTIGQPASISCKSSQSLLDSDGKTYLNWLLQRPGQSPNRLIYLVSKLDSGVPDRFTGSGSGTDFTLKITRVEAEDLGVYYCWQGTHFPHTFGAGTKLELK
modifications: Antibody fluorescently labeled in the MST assay; dye and site not stated.
notes: Murine monoclonal antibody from a hybridoma, purified from mouse ascites fluid; Fluorescently labeled in the MST assay
B1 was tested, and the “EC50 of phagocytic uptake of pHrodo-labeled amyloid Wil (% pHrodo-positive cells), J774.1 cells” value [1] was about 7 nM, the “EC50 of phagocytic uptake of pHrodo-labeled amyloid Wil (% pHrodo-positive cells), RAW 264.7 cells” value [1] was about 20 nM and the Kd [2] was 317 nM. For the same binder, the Kd [3] was 65 nM, the Kd [4] was 59 nM and the binding result [5] was “no binding”. For the same binder, the binding result [6] was “no binding”, the Kd [7] was 61.9 nM and the Kd [8] was 61 nM. It also gave a Kd [9] of 87 nM and a Kd [10] of 69 nM.
